Laboratory results from patent US20240301429A1.

Target: AP-VEGF165 (human) (UniProt P15692)
Experiment: saturation binding, trap coated on plate, AP-VEGF165 titrated, AP chemiluminescence

Chain of AP-VEGF165 (human) (P15692 other isoform, or with tags, fused parts or gaps): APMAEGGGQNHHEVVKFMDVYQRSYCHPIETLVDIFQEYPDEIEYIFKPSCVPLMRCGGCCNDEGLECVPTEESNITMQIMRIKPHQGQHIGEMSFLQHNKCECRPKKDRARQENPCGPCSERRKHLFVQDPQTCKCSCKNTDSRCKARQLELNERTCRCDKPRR

| Kd [µM] | Binder |
| --- | --- |
| 0.067 | NRP1 trap Z (receptor) FRNDKCGDTIKIESPGYLTSPGYPHSYHPSEKCEWLIQAPDPYQRIMINFNPHFDLEDRDCKYDYVEVFDGENENGHFRGKFCGKIAPPPVVSSGPFLFIKFVSDYETHGAGFSIRYELFKRGPECSQNYTTPSGVIKSPGFPEKYPNSLECTYIVFAPKMSEIILEFESFDLEPDSNPPGGMFCRYDRLEIWDGFPDVGPHIGRYCGQKTPGRIRSSSGILSMVFYTDSAIAKEGFSANYSVLQSSVSEDFKCMEALGMESGEIHSDQITASSQYSTNWSAERSRLNYPENGWTPGKKSYREWIQVDLGLLRFVTAVGTQGAISKETKKKYYVKTYKIDVSSNGEDWITIKEGNKPVLFQGNTNPTDVVVAVFPKPLITRFVRIKPATWETGISMRFEVYGCKITDYPCSGMLGMVSGLISDSQITSSNQGDRNWMPENIRLVTSRSGWALPPAPHSYINEWLQIDLGEEKIVRGIIIQGGKHRENKVFMRKFKIGYSNNGSDWKMIMDDSKRKAKSFEGNNNYDTPELRTFPALSTRFIRIYPERATHGGLGLRMELLGCEVEAPTAGPTTPNGNLVDECDDDQANCHSGTGDDFQLTGGTTVLATEKPTVIDSTIQSEFPTYGFNCEFGWGSHKTFCHWEHDNHVQLKWSVLTSKTGPIQDHTGDGNFIYSQADENQKGKVARLVSPVVYSQNSAHCMTFWYHMSGSHVGTLRVKLRYQKPEEYDQLVWMAIGHQGDHWKEGRVLLHKSLKLYQVIFEGEIGKGNLGGIAVDDISINNHISQEDCAKPADLDKKNPEIKIDETGSTPGYEGEGEGDKNISRKPGNVLKTLDPRSGSKENLYFQG |
| 0.0295 | NRP1 trap AB (receptor) FRNDKCGDTIKIESPGYLTSPGYPHSYHPSEKCEWLIQAPDPYQRIMINFNPHFDLEDRDCKYDYVEVFDGENENGHFRGKFCGKIAPPPVVSSGPFLFIKFVSDYETHGAGFSIRYELFKRGPECSQNYTTPSGVIKSPGFPEKYPNSLECTYIVFAPKMSEIILEFESFDLEPDSNPPGGMFCRYDRLEIWDGFPDVGPHIGRYCGQKTPGRIRSSSGILSMVFYTDSAIAKEGFSANYSVLQSSVSEDFKCMEALGMESGEIHSDQITASSQYSTNWSAERSRLNYPENGWTPGEDSYREWIQVDLGLLRFVTAVGTQGAIAKKTKKKYYVKTYKIDVSSNGEDWITIKEGNKPVLFQGNTNPTDVVVAVFPKPLITRFVRIKPATWETGISMRFEVYGCKITDYPCSGMLGMVSGLISDSQITSSNQGDRNWMPENIRLVTSRSGWALPPAPHSYINEWLQIDLGEEKIVRGIIIQGGKHRENKVFMRKFKIGYSNNGSDWKMIMDDSKRKAKSFEGNNNYDTPELRTFPALSTRFIRIYPERATHGGLGLRMELLGCEVEAPTAGPTTPNGNLVDECDDDQANCHSGTGDDFQLTGGTTVLATEKPTVIDSTIQSEFPTYGFNCEFGWGSHKTFCHWEHDNHVQLKWSVLTSKTGPIQDHTGDGNFIYSQADENQKGKVARLVSPVVYSQNSAHCMTFWYHMSGSHVGTLRVKLRYQKPEEYDQLVWMAIGHQGDHWKEGRVLLHKSLKLYQVIFEGEIGKGNLGGIAVDDISINNHISQEDCAKPADLDKKNPEIKIDETGSTPGYEGEGEGDKNISRKPGNVLKTLDPRSGSKENLYFQG |
| 0.0201 | NRP1 trap M (receptor) FRNDKCGDTIKIESPGYLTSPGYPHSYHPSEKCEWLIQAPDPYQRIMINFNPHFDLEDRDCKYDYVEVFDGENENGHFRGKFCGKIAPPPVVSSGPFLFIKFVSDYETHGAGFSIRYELFKRGPECSQNYTTPSGVIKSPGFPEKYPNSLECTYIVFAPKMSEIILEFESFDLEPDSNPPGGMFCRYDRLEIWDGFPDVGPHIGRYCGQKTPGRIRSSSGILSMVFYTDSAIAKEGFSANYSVLQSSVSEDFKCMEALGMESGEIHSDQITASSQYSTNWSAERSRLNYPENGWTPGEDSYREWIQVDLGLLRFVTAVGTQGAISKETKKKYYVKTYKIDVSSNGEDWITIKEGNKPVLFQGNTNPTDVVVAVFPKPLITRFVRIKPATWETGISMRFEVYGCRSGSKENLYFQG |
